Source: patent US20030143210A1 (Biogen, published 2003)

Target: T1, lymphotoxin-β (human, UniProt Q06643 4-244, N-linked oligosaccharide (about 3 kD lost on N-glycanase treatment))
T1 construct: Type II membrane protein; In the reimmunoprecipitation tests the protein had been eluted from SDS-PAGE gel slices; also called LT-β; LT-B
T1 sequence: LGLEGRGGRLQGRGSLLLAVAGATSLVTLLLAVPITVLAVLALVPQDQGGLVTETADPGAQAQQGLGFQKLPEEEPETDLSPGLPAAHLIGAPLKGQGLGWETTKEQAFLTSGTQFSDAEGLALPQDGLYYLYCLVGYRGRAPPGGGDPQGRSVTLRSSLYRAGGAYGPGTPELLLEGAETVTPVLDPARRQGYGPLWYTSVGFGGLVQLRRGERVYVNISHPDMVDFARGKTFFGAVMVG
Assay: co-immunoprecipitation, then reimmunoprecipitation of separated bands from 35S-Met labeled II-23.D7 cells
Description: Reimmunoprecipitation of SDS-PAGE-separated antigens was carried out by excising labeled bands from gels, rehydrating them for 10 minutes in TBS, 0.2% SDS, and then dicing the gel slices into small pieces. The proteins were eluted by incubation in 1 ml TBS, 0.2% SDS for 8 hours at room temperature, with rotation. After elution the gel pieces were removed by centrifugation, and NP-40 was added to the supernatant to a final concentration of 2%. The eluted proteins were then immunoprecipitated as above, and reanalyzed by SDS-PAGE.

B1: lymphotoxin-α (ligand, human, UniProt P01374 35-205, looked up)
chain: LPGVGLTPSAAQTARQHPKMHLAHSTLKPAAHLIGDPSKQNSLLWRANTDRAFLQDGFSLSNNSLLVPTSGIYFVYSQVVFSGKAYSPKATSSPLYLAHEVQLFSSQYPFHVPLLSSQKMVYPGLQEPWLHSMYHGAAFQLTQGDQLSTHTDGIPHLVLSPSTVFFGAFAL
modifications: N-linked oligosaccharide
notes: mature; also called LT-α; LT
- binding result: binds
